Experimental data: patent publication US20040001822A1, “Y1-isolated molecules comprising epitopes containing sulfated moieties, antibodies to such epitopes, and uses thereof” (priority 2000, published 2004)

Tests used:
MOLT-4 cells = experiment: T-ALL (MOLT4) model in SCID mice; assay type: in vivo
Description: The in vivo mouse model for T-ALL uses SCID mice (Jackson Laboratories) injected with MOLT4 cells derived from a T cell leukemia patient.
In one experiment, SCID mice were pretreated with 100 mg/kg Cytoxan (CTX, Cycloposphamid for injection, Mead Johnson). Eleven days after CTX injection, MOLT-4 cell were injected intravenously into the tail vein. Control mice were injected with PBS alone. One week post-MOLT-4 injection mice were injected with CONY1-Doxorubicin, which is a conjugate between scFv CON Y1 polypeptide, having KAK amino acid residues at its carboxy end and doxorubicin via a short organic linker; CONY1, which is a scFv antibody fragment derived from Y1 scFv in which the DNA sequences encoding the myc tag of Y1 were deleted and replaced with a DNA sequence encoding the amino acids lysine, alanine, lysine (KAK); or free Doxorubicin. The mice were injected three times per week for three weeks. […] (Table M).
Mice started to die 32 days post cell inoculation, and the surviving mice were sacrificed at this time. Bone marrow cells were analyzed by flow cytometry using anti-human CD44-FITC and Y1-Biotin/SAV-PE. Blood samples from several animals were monitored for platelet and white blood cell count. Livers were weighted and examined for tumor appearance. Other organs were also examined for tumor appearance.
In a second experiment, SCID mice were i.v. injected with 2×10^7 MOLT-4 cells/mouse, 5 days post treatment with cyclophosphamide. Anti-cancer agents or PBS (negative control animals) were injected i.v. three times/week from day 5 post MOLT-4 cells injection and onward. On day 35, blood was drawn from the animals, the animals were sacrificed, and their livers were excised and weighed. In the untreated, PBS-treated MOLT-4 cell-bearing animals, the liver presented with a very massive tumor growth, and its size was increased 2-3-fold relative to PBS control uninfected animals. In this experiment, there were five treatment groups:
In parallel, portions of liver tissue were taken for histology and cell harvesting for FACS analysis. The survival rate of another group of treated animals was recorded relative to that of control untreated mice.
In a third experiment, using the identical SCID/MOLT-4 protocol, there were 6 groups: […]

[1] = Pharmacokinetics of 125I-CONY1 after intravenous injection; assay type: in vivo, Male Balb-C mice
Description: Two to four mice were used per time point. […] Organ/tissue total and specific radioactivity values were calculated.

KG-1 cells = experiment: AML KG-1 model in NOD/SCID mice; assay type: in vivo
Description: The in vivo mouse model for human AML uses SCID/NOD mice (Jackson Laboratories) inoculated with KG-1 cells derived from a human AML cell line.
In a first experiment, NOD/SCID mice were pretreated with 100 mg/kg CYTOXAN®. Four days post CYTOXAN® injection, KG-1 cells were injected intravenously into the tail vein of six groups of mice. (Table N, Groups 2 and 5-9). One group of mice (Table N, Group 1) was injected with PBS alone (control).
Beginning 19 days post KG-1 injection mice were treated with: CONY1, Doxorubicin, CONY1-Doxorubicin conjugate, or Mylotarg®. (Mylotarg® is a monoclonal antibody (anti CD33) conjugated chemically to calcheamicin recently approved by the FDA for treatment of AML patients age 60 and over in a first relapse.) Mice were treated once or three times per week for three weeks. […]
Mice were sacrificed from 60 to 65 days post cell injection. Bone marrow samples were analyzed by flow cytometry using mouse anti human CD34-FITC (IQP 144F) (or anti CD44-FITC (MCA89F, Serotec)) and Y1-Biotin/SAV-PE. […]
An additional experiment was performed in which SCID-NOD mice were i.v. injected with 3×10^4 MOLT-4 cells/mouse 5 days post treatment with cyclophosphamide. […] Bone marrow was extracted and analyzed by FACS analysis using a commercially available antiCD44 antibody for the detection of MOLT-4 cells in the mice bone marrow cell population.

[2] = biological target: T1, GPIb (glycocalicin) derived from platelets (Homo sapiens, UniProt P07359); experiment: ELISA to glycocalicin, monomer versus cysteine dimer; assay type: binding
T1 construct: glycocalicin (soluble, extracellular fragment of GPIbα); from tissue; host or cells: human platelets
Description: An ELISA assay was performed to ascertain the differences in binding between the monomer (the Y1 scFv-also known as Y1-kak) and the dimer Y1-cys-kak (the cysteine dimer) for antigen GPIb (glycocalicin) derived from platelets. A polyclonal anti single chain antibody and/or a novel polyclonal anti-VL (derived from rabbits) and anti-rabbit HRP, were used to detect the binding to GPIb. […] For instance, to reach 0.8 OD units 12.8 μg/ml of monomer was used compared to only 0.1 μg/ml of dimer.
100 ml of purified glycocalicin was incubated in a 96 flat well maxisorp plates, overnight at 4 degrees celsius. The plate was washed with PBST (PBS+0.05% tween) 3 times, then […] of PBST-milk (PBST+2% Non fat milk), for 1 hr at room temperature. The plate was washed with PBST, and the monomer or dimer (100 ml) was added in PBST-milk at different concentrations for 1 hr at room temp. Then the plate was washed and anti-VL polyclonal (derived from immunized rabbits with VL derived from Y1) (1:100 diluted in PBST-milk) was added for an hour. The plate was washed and anti-rabbit HRP was added for an additional hour. The plate was washed 5 times and 100 μl TMB substrate was added for approximately 15 minutes then 100 μl of 0.5 H2SO4 was added to stop the reaction. The optical density of the plate was measured at 450 nm in an ELISA reader.

[3] = system: platelet-rich-plasma (PRP); experiment: Ristocetin-induced aggregation of platelet-rich plasma after preincubation with scFv; assay type: cell-based, human; conditions: scFv 38 μg/ml
Description: The effect of Y1 (scfv) on aggregation of platelet-rich-plasma (PRP) was tested at various concentrations of Y1. PRP was pre-incubated with Y1 scfv, Y17 scfv, or a control sTM-1cFv for 4 min at 37° C. before being exposed to ristocetin, an inducer of platelet agglutination and aggregation. A reversible inhibitory effect was observed when scFv was added to PRP prior to the addition of ristocetin, and it was dose dependent.
Blood was collected into a tube containing 3.8% sodium citrate. Platelet-rich plasma was prepared by centrifugation at 250×g for 10 minutes.
(§1) For platelet aggregation studies, platelet rich plasma (PRP) and washed platelets were stirred at 500 rpm at 37° C. in whole blood Lumiaggregometer (Chronolog, Havertown,Pa.). The difference in light transmission through the platelet suspension and suspending medium was taken as 100% aggregation. The effect of Y1 on platelet aggregation was evaluated by addition of different concentration of Y1 before the addition of agonist, and the effect was recorded for four minutes.

washed platelets = experiment: Ristocetin-induced agglutination of washed platelets after preincubation with scFv; assay type: cell-based, human
Description: Aggregation is determined in PRP due to the presence of thrombotic agents, while agglutination is determined in washed platelets. The effect of Y1 (scFv) on agglutination of washed platelets was tested at various concentrations of Y1. Platelets were pre-incubated with Y1 scFv, Y17 scFv, Y16-scFv, or a control TM-1 scFv for 4 min at 37° C. before being exposed to ristocetin, an inducer of platelet agglutination and aggregation.
Platelet concentrate in acid-citrate-dextrose (ACD) was obtained from a blood bank, platelets were isolated, washed once in buffer containing ACD and saline in a ratio of 1:7. The platelets were centrifuged at 800 g for 10 min after each wash and were resuspended in Tyrodes solution (2 mM MgCl2, 137 mM NaCl, 2.68 mM KCl, 3 mM NaH2PO4, 0.1% glucose, 5 mM Hepes and 0.35% albumin, pH 7.35) and count the number of cells.
as §1
The effect of Y17-scFv on vWF-dependent agglutination of platelets was tested at different concentrations of Y17.

[4] = scFv 25 μg/ml, ristocetin = 100% agglutination

Molecule | liver weight versus free Doxorubicin or untreated (MOLT-4 cells; first experiment, three times per week for three weeks, sacrifice 32 days post cell inoculation) | survival (MOLT-4 cells; mice which received continued treatment) | liver weights / tumor growth in the liver (MOLT-4 cells; second experiment, day 35, i.v. three times/week, CONY1 and conjugate 75 μg/mouse, Doxorubicin 0.1 mg/kg) | tumor growth (based on liver weights) (MOLT-4 cells; third experiment, CONY1 scFv 75 μg/mouse, Y1-IgG 5 μg/mouse) | half-life of blood clearance, first compartment ([1]; 15 μg per mouse i.v., plasma TCA precipitable radioactivity, two-compartment model) | half-life of blood clearance, second compartment ([1]; 15 μg per mouse i.v., two-compartment model) | distribution between plasma and erythrocytes ([1]; blood versus plasma radioactivity) | specific uptake in body tissues ([1]; liver, lung, kidney, spleen, bone marrow, 5 minutes to 24 hours) | prevalence of cancer cells in the bone marrow (KG-1 cells; additional experiment, day 60, CONY1 scFv 75 μg/mouse three times/week, Mylotarg 7 μg/mouse once a week) | percentage of KG-1 cells in bone marrow (KG-1 cells; first experiment, KG-1 cells incubated in vitro with scFv before injection (groups 3 and 4)) | concentration to reach 0.8 OD units [2] | % aggregation [3] | % inhibition ([3]; listed as Y17) | inhibition of vWF-dependent platelet agglutination induced by ristocetin (washed platelets; final concentration of 10, 25 or 50 μg/ml) | % agglutination (washed platelets; [4]) | % inhibition (washed platelets; [4])
CONY1: scFv derived from Y1 scFv with the myc tag replaced by lysine, alanine, lysine (KAK), SEQ ID NO: 204 (protein, listed as Homo sapiens) scFv: MKYLLPTAAAGLLLLAAQPAMAEVQLVESGGGVVRPGGSLRLSCAASGFTFDDYGMSWVRQAPGKGLEWVSGINWNGGSTGYADSVKGRFTISRDNAKNSLYLQMNSLRAEDTAVYYCARMRAPVIWGQGTLVTVSRGGGGSGGGGSGGGGSSELTQDPAVSVALGQTVRITCQGDSLRSYYASWYQQKPGQAPVLVIYGKNNRPSGIPDRFSGSSSGNTASLTITGAQAEDEADYYCNSRDSSGNHVVFGGGTKLTVLGAAAKAK | weighted significantly less | prolonged | markedly inhibited tumor growth in the liver | inhibited tumor growth | 0.583 h | 3.17 h | practically all of the CONY-1 resided in the plasma and did not adhere to erythrocytes | no major specific uptake | had no effect | significantly lower percentage | 12.8 µg/mL | – | – | – | – | –
Y17 scFv: second scFv clone binding platelets and myelogenous leukemia cell lines, SEQ ID NO: 203 (protein, listed as Homo sapiens) scFv: MKYLLPTAAAGLLLLAAQPAMAEVQLVESGGGVVRPGGSLRLSCAASGFTFDDYGMSWVRQAPGKGLEWVSGINWNGGSTGYADSVKGRFTISRDNAKNSLYLQMNSLRAEDTAVYYCARLTHPYFWGQGTLVTVSRGGGGSGGGGSGGGGSSELTQDPAVSVALGQTVRITCQGDSLRSYYASWYQQKPGQAPVLVIYGKNNRPSGIPDRFSGSSSGNTASLTITGAQAEDEADYYCNSRDSSGNHVVFGGGTKLTVLGAAAEQKLISEEDLNGAA | – | – | – | – | – | – | – | – | – | – | – | 100% | did not inhibit | did not inhibit | 85% | 15%
